Numbering of substitutions follows the chain as printed. Names may count otherwise.

Data set [1] deals with the molecule itself. Nature of the data set: negative-stain EM; CARD9^2–152 constructs purified 1:1 with Zn2+, Zn2+ removed with a twofold excess of EDTA, incubated at the indicated concentration, time and temperature; 50 mM HEPES, 150 mM NaCl, 0.5 mM TCEP, pH 7.0; step: dimers to filaments.
Data set [2] concerns the molecule itself. Description: absorbance at 350 nm + other: negative-stain EM; CARD9^2−97 polymerisation: 1:1 Zn2+-bound CARD, EDTA added at t = 0; 50 mM Tris, 150 mM NaCl, 0.5 mM TCEP, pH 7.0, 25 °C, shaking; NS-EM grids at 90 min.
Data set [3] concerns the molecule itself. Nature of the data set: NMR solution structure; CARD9^2−142 dimer, 1 mM with 1:1 ZnCl2, 50 mM HEPES, 300 mM NaCl, 0.5 mM TCEP, pH 7.0, 37 °C; intermolecular NOEs from a mixed labelled/unlabelled sample, RDCs.
Data set [4] deals with the molecule itself. Description: negative-stain EM; CARD11^8−109 WT or mutants at 250 μM or 500 μM, 2 h at 25 °C, 50 mM HEPES, 50 mM NaCl, 0.5 mM TCEP, pH 7.0.

B1: CARD9^2−152/L115I (domain or fragment, human, UniProt Q9H257 2-152, looked up)
chain: SDYENDDECWSVLEGFRVTLTSVIDPSRITPYLRQCKVLNPDDEEQVLSDPNLVIRKRKVGVLLDILQRTGHKGYVAFLESLELYYPQLYKKVTGKEPARVFSMIIDASGESGITQLLMTEVMKLQKKVQDLTALLSSKDDFIKELRVKDS
notes: not shown: 6xHis, N-terminal, cleaved
Turning to B1, the binding result in data set [1] is recorded as “binds”.

B2: CARD9^2−97 (CARD9 CARD alone), wild type (domain or fragment, human, UniProt Q9H257 2-97, looked up)
chain: SDYENDDECWSVLEGFRVTLTSVIDPSRITPYLRQCKVLNPDDEEQVLSDPNLVIRKRKVGVLLDILQRTGHKGYVAFLESLELYYPQLYKKVTGK
notes: CARD9, human, residues 2-97 (CARD); polymerisation started by EDTA; also called CARD9^2−97/WT; source: E. coli BL21(DE3), purified (Ni-NTA, TEV, Superdex 75); not shown: 6xHis, N-terminal, cleaved
Take B2: in data set [2], the binding result is listed as “binds”.

B3: CARD9^2−97/D43R/K58D (domain or fragment, human, UniProt Q9H257 2-97, looked up)
chain: B2 chain with D42R, K57D
notes: CARD9, human, residues 2-97 (CARD); also called charge-swap mutant of the Type III interface; source: E. coli BL21(DE3), purified (Ni-NTA, TEV, Superdex 75; insoluble mutants under denaturing conditions); not shown: 6xHis, N-terminal, cleaved
For the protein B3, the binding result in data set [2] is “binds”.

B4: CARD9^2−142 (domain or fragment, human, UniProt Q9H257 2-142, looked up)
chain: SDYENDDECWSVLEGFRVTLTSVIDPSRITPYLRQCKVLNPDDEEQVLSDPNLVIRKRKVGVLLDILQRTGHKGYVAFLESLELYYPQLYKKVTGKEPARVFSMIIDASGESGLTQLLMTEVMKLQKKVQDLTALLSSKDD
notes: Isotope-labelled samples with 1:1 ZnCl2 for NMR; not shown: 6xHis, N-terminal, cleaved
Turning to B4, the binding result in data set [3] was “binds”.

B5: CARD11^8−109 (CARD11 CARD), wild type (domain or fragment, human, UniProt Q9BXL7 8-109, looked up)
chain: MDDYMETLKDEEDALWENVECNRHMLSRYINPAKLTPYLRQCKVIDEQDEDEVLNAPMLPSKINRAGRLLDILHTKGQRGYVVFLESLEFYYPELYKLVTGK
notes: CARD11 (CARMA1), human, residues 8-109 (CARD); also called WT CARD11 CARD; source: E. coli BL21(DE3), purified (Ni-NTA, TEV, Superdex 75); not shown: 6xHis, N-terminal, cleaved
With B5, the binding result in data set [4] was “binds”.

Values taken from publication PMC6624267, “Structures of autoinhibited and polymerized forms of CARD9 reveal mechanisms of CARD9 and CARD11 activation” (Nature Communications, 2019).
